Assay results from PMC9482650, “Quantitative fragmentomics allow affinity mapping of interactomes” (Nature Communications, 2022).

Key:
Assay in all cases: holdup assay
Design in all cases: key: below the threshold = too weak to quantify, mostly under pKd 3.1 to 4
[1] = target: DLG4_1, P78352
[2] = target: FRMPD2_3, Q68DX3
[3] = target: T1, GRIP1_3, Q9Y3R0
T1 sequence (Q9Y3R0 247-346, limits assumed, looked up): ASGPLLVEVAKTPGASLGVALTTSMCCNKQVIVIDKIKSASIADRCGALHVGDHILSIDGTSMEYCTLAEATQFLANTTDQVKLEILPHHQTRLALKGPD

[4] = target: PDZRN4_1, Q6ZMN7
Sequence of PDZRN4_1, Q6ZMN7 (Q6ZMN7 213-318): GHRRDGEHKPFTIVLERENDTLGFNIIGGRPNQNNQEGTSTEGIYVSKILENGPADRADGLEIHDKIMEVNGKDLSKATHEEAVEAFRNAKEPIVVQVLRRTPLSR

[5] = target: T2, APBA2_1, Q99767
T2 sequence (Q99767 563-664, limits assumed, looked up): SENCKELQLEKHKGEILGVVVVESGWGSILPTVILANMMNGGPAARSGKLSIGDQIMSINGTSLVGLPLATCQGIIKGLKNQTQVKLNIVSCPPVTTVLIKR

[6] = target: T3, RHPN1, Q8TCX5
T3 sequence (Q8TCX5 508-602, limits assumed, looked up): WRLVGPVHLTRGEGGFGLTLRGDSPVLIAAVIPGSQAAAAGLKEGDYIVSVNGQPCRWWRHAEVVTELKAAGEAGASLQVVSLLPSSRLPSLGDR

[7] = target: T4, SNTG1, Q9NSN8
T4 sequence (Q9NSN8 52-150, limits assumed, looked up): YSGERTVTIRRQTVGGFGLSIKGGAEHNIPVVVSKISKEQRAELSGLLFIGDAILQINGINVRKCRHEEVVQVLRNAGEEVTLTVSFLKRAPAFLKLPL

[8] = target: LDB3, O75112
Sequence of LDB3, O75112 (O75112 1-94): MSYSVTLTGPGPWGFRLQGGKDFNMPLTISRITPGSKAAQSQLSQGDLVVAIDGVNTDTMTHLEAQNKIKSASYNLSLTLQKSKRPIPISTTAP

[9] = target: MAGI2_6, Q86UL8
Sequence of MAGI2_6, Q86UL8 (Q86UL8 1141-1229): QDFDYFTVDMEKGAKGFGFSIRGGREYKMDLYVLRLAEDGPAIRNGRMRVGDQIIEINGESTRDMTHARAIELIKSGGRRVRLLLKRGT

[10] = target: MAGI2_4, Q86UL8
Sequence of MAGI2_4, Q86UL8 (Q86UL8 772-865): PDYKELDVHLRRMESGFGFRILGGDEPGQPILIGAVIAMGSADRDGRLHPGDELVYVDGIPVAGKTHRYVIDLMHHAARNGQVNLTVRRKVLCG

[11] = target: FRMPD4, Q14CM0
Sequence of FRMPD4, Q14CM0 (Q14CM0 67-160): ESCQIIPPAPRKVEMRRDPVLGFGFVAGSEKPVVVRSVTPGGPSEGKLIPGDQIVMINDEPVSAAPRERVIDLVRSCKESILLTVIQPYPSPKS

[12] = target: T5, ARHGEF11, O15085
T5 sequence (O15085 42-136, limits assumed, looked up): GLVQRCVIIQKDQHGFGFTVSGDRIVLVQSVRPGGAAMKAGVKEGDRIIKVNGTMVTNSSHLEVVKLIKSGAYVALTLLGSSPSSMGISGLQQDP

[13] = target: T6, GRIP1_5, Q9Y3R0
T6 sequence (Q9Y3R0 568-668, limits assumed, looked up): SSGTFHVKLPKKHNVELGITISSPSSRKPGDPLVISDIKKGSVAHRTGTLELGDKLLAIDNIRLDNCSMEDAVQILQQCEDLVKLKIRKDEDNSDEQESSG

[14] = target: T7, DVL3, Q92997
T7 sequence (Q92997 244-331, limits assumed, looked up): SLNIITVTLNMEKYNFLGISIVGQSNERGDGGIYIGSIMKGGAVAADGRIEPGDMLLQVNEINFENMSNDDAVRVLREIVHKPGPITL

[15] = target: DLG1_1, Q12959
[16] = target: TJP2_1, Q9UDY2
Sequence of TJP2_1, Q9UDY2 (Q9UDY2 24-128): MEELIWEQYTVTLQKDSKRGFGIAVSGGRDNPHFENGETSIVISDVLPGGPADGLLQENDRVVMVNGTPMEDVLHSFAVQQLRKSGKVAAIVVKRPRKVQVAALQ

[17] = target: Inadl_4, Q8NI35
Sequence of Inadl_4, Q8NI35 (Q8NI35 547-651): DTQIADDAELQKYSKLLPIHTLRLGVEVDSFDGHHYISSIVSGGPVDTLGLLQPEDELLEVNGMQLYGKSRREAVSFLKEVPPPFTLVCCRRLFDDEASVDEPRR

[18] = target: Inadl_2, Q8NI35
Sequence of Inadl_2, Q8NI35 (Q8NI35 238-335): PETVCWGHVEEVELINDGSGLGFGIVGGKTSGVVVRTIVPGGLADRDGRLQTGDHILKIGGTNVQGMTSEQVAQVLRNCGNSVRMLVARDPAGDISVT

[19] = target: GRIP2_5, Q9C0E4
Sequence of GRIP2_5, Q9C0E4 (Q9C0E4 544-642): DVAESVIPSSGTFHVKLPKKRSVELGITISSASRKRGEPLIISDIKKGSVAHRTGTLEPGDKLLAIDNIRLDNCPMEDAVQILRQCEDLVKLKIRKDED

[20] = target: T8, NHERF3_1, Q5T2W1
T8 sequence (Q5T2W1 4-100, limits assumed, looked up): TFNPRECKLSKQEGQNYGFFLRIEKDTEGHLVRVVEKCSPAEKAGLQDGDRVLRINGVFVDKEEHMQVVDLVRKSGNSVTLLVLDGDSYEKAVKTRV

[21] = target: Inadl_6, Q8NI35
Sequence of Inadl_6, Q8NI35 (Q8NI35 1058-1167): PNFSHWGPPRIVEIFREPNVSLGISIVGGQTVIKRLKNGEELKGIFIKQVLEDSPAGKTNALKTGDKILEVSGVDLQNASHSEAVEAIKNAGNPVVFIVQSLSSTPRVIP

[22] = target: MAGI1_2, Q96QZ7
Sequence of MAGI1_2, Q96QZ7 (Q96QZ7 456-580): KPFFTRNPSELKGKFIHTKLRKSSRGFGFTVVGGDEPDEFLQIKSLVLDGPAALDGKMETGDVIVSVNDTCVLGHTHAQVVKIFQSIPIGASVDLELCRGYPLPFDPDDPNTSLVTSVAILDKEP

[23] = target: T9, LNX2_2, Q8N448
T9 sequence (Q8N448 334-432, limits assumed, looked up): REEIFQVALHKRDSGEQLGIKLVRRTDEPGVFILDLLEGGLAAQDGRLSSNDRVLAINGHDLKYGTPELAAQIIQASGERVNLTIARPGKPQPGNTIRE

[24] = target: MAGI1_1, Q96QZ7
Sequence of MAGI1_1, Q96QZ7 (Q96QZ7 1-106): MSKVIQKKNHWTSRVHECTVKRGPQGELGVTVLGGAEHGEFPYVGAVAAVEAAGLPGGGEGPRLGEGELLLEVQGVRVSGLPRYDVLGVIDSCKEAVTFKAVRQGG

[25] = target: T10, DLG3_1, Q92796
T10 sequence (Q92796 125-227, limits assumed, looked up): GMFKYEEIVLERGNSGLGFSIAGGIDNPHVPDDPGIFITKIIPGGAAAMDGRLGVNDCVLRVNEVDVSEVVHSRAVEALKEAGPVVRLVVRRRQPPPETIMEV

[26] = target: Inadl_5, Q8NI35
Sequence of Inadl_5, Q8NI35 (Q8NI35 673-780): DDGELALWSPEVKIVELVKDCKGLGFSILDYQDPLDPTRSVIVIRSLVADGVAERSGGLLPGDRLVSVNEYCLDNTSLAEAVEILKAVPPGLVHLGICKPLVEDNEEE

[27] = target: T11, HTRA4, P83105
T11 sequence (P83105 378-476, limits assumed, looked up): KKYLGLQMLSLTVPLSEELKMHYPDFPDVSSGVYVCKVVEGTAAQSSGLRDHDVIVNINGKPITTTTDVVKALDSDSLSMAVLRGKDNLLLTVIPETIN

[28] = plain residues with an end cap or a label only (N-terminal biotin on a linker: ttds)
[29] = plain residues with an end cap or a label only (N-terminal biotin on a linker: ado-ado)
[30] = plain residues with an end cap or a label only (N-terminal biotin on a linker: ahx)

Sequence of DLG4_1, P78352 (P78352 62-152): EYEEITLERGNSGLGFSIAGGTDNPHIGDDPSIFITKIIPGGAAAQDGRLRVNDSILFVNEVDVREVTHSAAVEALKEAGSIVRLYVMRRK
Sequence of FRMPD2_3, Q68DX3 (Q68DX3 1073-1166): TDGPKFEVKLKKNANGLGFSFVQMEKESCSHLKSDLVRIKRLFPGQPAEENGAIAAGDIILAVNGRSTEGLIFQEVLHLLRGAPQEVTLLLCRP

B1: ARHGEF16, Q5VV41 (peptide)
chain: MERLRVETDV
pKd [1, 28]: 5.13 | pKd [2, 28]: below the threshold | pKd [3, 28]: below the threshold | pKd [4, 28]: 3.83 | pKd [5, 28]: below the threshold | pKd [6, 28]: 4.18 | pKd [7, 28]: 4.89 | pKd [8, 28]: below the threshold | pKd [9, 28]: 4.55 | pKd [10, 28]: 3.99 | pKd [11, 28]: below the threshold | pKd [12, 28]: 4.21 | pKd [13, 28]: below the threshold | pKd [14, 28]: 3.65 | pKd [15, 28]: 5.01 | pKd [16, 28]: below the threshold | pKd [17, 28]: below the threshold | pKd [18, 28]: below the threshold | pKd [19, 28]: below the threshold | pKd [20, 28]: below the threshold | pKd [21, 28]: below the threshold | pKd [22, 28]: 3.9 | pKd [23, 28]: 3.93 | pKd [24, 28]: below the threshold | pKd [25, 28]: 4.59 | pKd [26, 28]: below the threshold | pKd [27, 28]: 3.74

B2: HTR2C, P28335 (peptide)
chain: SVVSERISSV
pKd [1, 29]: 3.94 | pKd [2, 29]: below the threshold | pKd [3, 29]: below the threshold | pKd [4, 29]: below the threshold | pKd [5, 29]: below the threshold | pKd [6, 29]: 4.65 | pKd [7, 29]: 4.06 | pKd [8, 29]: below the threshold | pKd [9, 29]: 4.64 | pKd [10, 29]: below the threshold | pKd [11, 29]: below the threshold | pKd [12, 29]: 3.84 | pKd [13, 29]: below the threshold | pKd [14, 29]: below the threshold | pKd [15, 29]: 4.07 | pKd [16, 29]: below the threshold | pKd [17, 29]: below the threshold | pKd [18, 29]: below the threshold | pKd [19, 29]: below the threshold | pKd [20, 29]: below the threshold | pKd [21, 29]: below the threshold | pKd [22, 29]: below the threshold | pKd [23, 29]: 3.96 | pKd [24, 29]: below the threshold | pKd [25, 29]: below the threshold | pKd [26, 29]: below the threshold | pKd [27, 29]: below the threshold

B3: DGKZ, Q13574 (peptide)
chain: IQREDQETAV
pKd [1, 28]: 4.72 | pKd [2, 28]: 3.71 | pKd [3, 28]: below the threshold | pKd [4, 28]: 4.81 | pKd [5, 28]: below the threshold | pKd [6, 28]: 4.35 | pKd [7, 28]: 5.4 | pKd [8, 28]: below the threshold | pKd [9, 28]: 4.63 | pKd [10, 28]: below the threshold | pKd [11, 28]: 3.93 | pKd [12, 28]: 4.47 | pKd [13, 28]: below the threshold | pKd [14, 28]: below the threshold | pKd [15, 28]: 4.73 | pKd [16, 28]: below the threshold | pKd [17, 28]: below the threshold | pKd [18, 28]: below the threshold | pKd [19, 28]: below the threshold | pKd [20, 28]: 5.14 | pKd [21, 28]: 4.02 | pKd [22, 28]: below the threshold | pKd [23, 28]: below the threshold | pKd [24, 28]: below the threshold | pKd [25, 28]: 4.26 | pKd [26, 28]: below the threshold | pKd [27, 28]: below the threshold

B4: RGS12, O14924 (peptide)
chain: KTSAHHATFV
pKd [1, 30]: 4.22 | pKd [2, 30]: below the threshold | pKd [3, 30]: below the threshold | pKd [4, 30]: below the threshold | pKd [5, 30]: below the threshold | pKd [6, 30]: 4.03 | pKd [7, 30]: 3.55 | pKd [8, 30]: below the threshold | pKd [9, 30]: 4.02 | pKd [10, 30]: 4.13 | pKd [11, 30]: below the threshold | pKd [12, 30]: 3.6 | pKd [13, 30]: below the threshold | pKd [14, 30]: 3.56 | pKd [15, 30]: 3.93 | pKd [16, 30]: 4.45 | pKd [17, 30]: below the threshold | pKd [18, 30]: below the threshold | pKd [19, 30]: below the threshold | pKd [20, 30]: 4.41 | pKd [21, 30]: 3.94 | pKd [22, 30]: 4.03 | pKd [23, 30]: 4.62 | pKd [24, 30]: below the threshold | pKd [25, 30]: below the threshold | pKd [26, 30]: 3.86 | pKd [27, 30]: 3.97
